Laboratory results reported in patent US20220356245A1 (FORTY SEVEN, published 2022).
Numbering of substitutions follows the chain as printed.

B1: Candidate 22 (VL008-AL13-8G5-8K3), mouse IgG (antibody, V domains shown)
VH: QVQLQQPGAELVKPGASVKLSCKASGYTFTTYWMHWVKQRPGQGLEWIGMIHPNSGTTNYNEKFKSKATLTVDKSSSSTYMQLSSLTSEDSAVYYCTRSHYYDGHFSYWGQGTLVTVSA
VL: DIVMSQSPSSLAVSAGEKVTMSCKSSQSLLNSRTRKNYLAWYQQKPGQSPKLLIYWASTRESGVPDRFTGSGSGTDFTLTISSVQAEDLAVYYCKQSYNLWTFGGGTRLEIK
notes: Recombinant mouse IgG2a or mIgG1 format, by assay; also called antibody 22
B2: Candidate 26 (VT008-AL6-10G3-10K1), mouse IgG (antibody, V domains shown)
VH: QVQLQQPGPELVKPGASVKLSCKASGYTFTNYWIHWLNQRPGRGLEWIGRIDPNSGGTKYNEKFKSKAILTVDKSSSTTYMQLSSLTSEDSAVYYCARGGYTMDYWGQGTSVTVSS
VL: DVVMPQTPLSLPVSLGDHASISCRSSQSLLHSNGNTYLHWYLQKPGQSPKLLIYKVSYRFSGVPDRISGSGSGTDFTLKISRVEAEDLGVYFCFQSTHVPWTFGGGTKLEIK
notes: Recombinant mouse IgG2a or mIgG1 format, by assay
B3: Candidate 33 (VL008-AL17-8G5-8K7), mouse IgG (antibody, V domains shown)
VH: LVQLQQSGPELVKPGTSVKISCRSSGYTFTDYYINWVQQRPGQGLEWVGWIFPGSGLTYYNKKFKGKATLSVDKSSNTAYMLLSSLTSEDSAVYFCARPYYGSRWDYTMDYWGQGTSVTVSS
VL: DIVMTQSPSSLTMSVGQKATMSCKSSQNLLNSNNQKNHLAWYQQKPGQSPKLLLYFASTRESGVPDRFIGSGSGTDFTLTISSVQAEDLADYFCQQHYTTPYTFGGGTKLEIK
notes: as for B2
B4: Candidate 19, chimeric hIgG format (hIgG1 or hIgG4) (antibody, V domains shown)
VH: B3 VH with L1Q, T16A, R23K, S24A, G26V, Q38K, S71T, N77S, T108A
VL: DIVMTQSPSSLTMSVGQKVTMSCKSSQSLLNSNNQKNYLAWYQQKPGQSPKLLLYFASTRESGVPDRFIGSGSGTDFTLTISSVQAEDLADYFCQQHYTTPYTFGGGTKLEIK
notes: also called Candidate 19 (hIgG format)
B5: Candidate 29 (VT008-AL6-20G7-20K7), mouse IgG (antibody, V domains shown)
VH: QVQLQQSGTELAKPGASVKLSCKASGYTFINYWIYWVKERPGQVLEWIGYINPRSDDTKYNQKFRDRATLTADKSSTTAYLQLNSLTNDDSALYYCARGGFTMDFWGQGTSVTVSS
VL: B2 VL with P5T, H18Q, K50N, I67F, F94S, S96G, W101Y

Tests used:
[1] = biological target: T1, human CD47 (hCD47) expressed on cells (human, UniProt Q08722 19-323); assay: flow cytometry, hCD47-CHO cells, competition with His-hSIRPα
T1 construct: Transfected CHO cells or endogenous CD47 of human cells; also called CHO-hCD47; CD47 on Raji cells
Description: (§1) Human CD47-transfected cells (3×10⁵ cells/well of 96-well plate) were first incubated at +4° C. for 30 minutes with serial dilutions of anti-CD47 antibodies or isotype control antibody (in mIgG2a or mIgG1 format). […] The percentage inhibition was plotted against antibody concentration and the IC50 values were calculated using a nonlinear regression analysis model of the GraphPad Prism software.

[2] = biological target: T2, hu-sCD47-6His; extracellular domain of human CD47 antigen with 6His-tag (human); assay: SPR Biacore T200, antibody captured, hCD47-his analyte;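 further: antibodies captured on anti-IgG (Fc) CM5 chip, five sequential 10 min antigen injections at rising concentrations, reference flow cell and antigen-free cycle as controls, 1:1 model fit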
T2 construct: also called hCD47-his; soluble hCD47

[3] = biological target: T1, human CD47 (hCD47) expressed on cells; assay: flow cytometry, Raji cells
Description: Raji cells (ATCC-CLL-86; 2×10⁵ cells/well of 96-well plate) were first incubated at +4° C. for 30 minutes with serial dilutions of anti-CD47 antibodies or control isotype antibody (in mIgG2a or mIgG1 format). The cells were then washed and incubated for 30 minutes at +4° C. with a PE-conjugated F(ab)′2 goat anti-mouse IgG antibody ( 1/100 dilution, Beckman Coulter). After washings, the fluorescence of the cells was analyzed by flow cytometry on an Accuri-C6 flow cytometer (BD Biosciences).
The delta of MFI, representing the difference between the intensity measured with the tested antibody and the intensity in the absence of antibody, was calculated for each antibody concentration and the values were plotted against the antibody concentrations. The EC50 values were then calculated by using a nonlinear regression analysis model of the GraphPad Prism software.

[4] = biological target: T1, human CD47 (hCD47) expressed on cells; assay: cell-based or functional assay
[5] = biological target: T2, hu-sCD47-6His; extracellular domain of …; assay: SPR Biacore T200, antibody captured, hCD47-his analyte; exponent printed without minus sign, read as 10^-8
Excerpt: An anti-human or anti-mouse IgG (Fc) was first immobilized on the surface of Serie S Sensor Chips CM5 using the human or mouse antibody capture and amine coupling kits, following the manufacturer's instructions (GE Healthcare). […] The mouse, chimerized or humanized antibodies to be tested were then captured onto the appropriate anti-mouse or anti-human IgG surface in all flow cells except flow cell 1 used as control, at concentration and contact time adjusted so that ˜300 RU were captured on the surface. Binding kinetics were studied by passing increasing concentrations of hCD47-his in a series of five 10 minute injections through all flow cells at a rate of 30 μL/min. […] Following the final injection, buffer was passed across each flow cell for 60 minutes (mouse) or 30 minutes (human) to monitor the dissociation of bound antigen. Regeneration of the binding surface was carried out at the end of the cycle by flowing 3 M MgCl₂ for 60 s at 20 μL/min followed by 10 mM glycine-HCl, pH 1.7 for 180 s at 10 μl/min (for human) or by flowing 10 mM glycine-HCl, ph 1.7 for 360 s at 10 μl/min (for mouse). A second cycle with the same antibodies but no antigen was run as a control. Kinetics binding constants were estimated by non-linear fitting of the sensogram data to the 1:1 binding model provided by the Biacore T200 evaluation software.

[6] = biological target: T3, mouse CD47 (mCD47) expressed on CHO cells (mouse, UniProt Q61735 19-303); assay: flow cytometry, CHO-mCD47 cells
T3 construct: whole, on cells; also called CHO-mCD47
T3 sequence (looked up): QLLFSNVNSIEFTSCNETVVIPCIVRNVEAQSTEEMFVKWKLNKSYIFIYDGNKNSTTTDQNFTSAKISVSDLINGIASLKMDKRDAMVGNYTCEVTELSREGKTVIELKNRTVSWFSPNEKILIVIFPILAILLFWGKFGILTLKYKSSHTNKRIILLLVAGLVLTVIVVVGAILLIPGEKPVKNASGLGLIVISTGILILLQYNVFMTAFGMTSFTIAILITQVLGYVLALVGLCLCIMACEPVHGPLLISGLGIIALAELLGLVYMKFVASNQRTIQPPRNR

[7] = biological target: T1, human CD47 (hCD47) expressed on cells; assay: flow cytometry, hCD47-CHO cells, competition with His-hSIRPα; lower end tied to candidate 26 by Table 5
Description: as §1

[8] = biological target: T1, human CD47 (hCD47) expressed on cells; assay: flow cytometry, hCD47-CHO cells, competition with His-hSIRPα; upper end tied to candidate 33 by Table 5
Description: as §1

[9] = biological target: T1, human CD47 (hCD47) expressed on cells; assay: flow cytometry, Raji cells, competition with His-hSIRPα; upper end tied to candidate 19 by Table 7
Description: (§2) The percent inhibition was plotted against antibody concentration and the IC50 values were calculated by using a nonlinear regression analysis model of the GraphPad Prism software.

[10] = biological target: T1, human CD47 (hCD47) expressed on cells; assay: flow cytometry, Raji cells, competition with His-hSIRPα
Description: as §2

[11] = biological target: T1, human CD47 (hCD47) expressed on cells; assay: flow cytometry, CD47-transfected CHO cells

| Binder | IC50 [1] [µg/mL] | koff [2] [s⁻¹] | kon [2] [M⁻¹ s⁻¹] | EC50 [3] [µg/mL] | Phagocytic index, Raji cells and human macrophages, antibody at 0.125 µg/mL [4] | Kd [5] [nM] | binding result [6] | Kd [2] [nM] | IC50 [7] [nM] | IC50 [8] [nM] | IC50 [9] [nM] | IC50 [10] [µg/mL] | binding result [11] |
| --- | --- | --- | --- | --- | --- | --- | --- | --- | --- | --- | --- | --- | --- |
| B1 | 0.482 | 0.000325 | 20700 | 0.136 | 106 Raji cells ingested per 100 macrophages | 15.7 | no binding (tested: 7.3 µg/mL highest concentration) |  |  |  |  |  |  |
| B2 | 0.359 | 0.000372 | 200000 | 0.07 | 85.3 Raji cells ingested per 100 macrophages |  |  | 1.87 | 2.4 |  |  |  |  |
| B3 | 1.11 | 6.7e-05 | 74600 | 0.112 | 71.4 Raji cells ingested per 100 macrophages |  | no binding (tested: 7.3 µg/mL highest concentration) | 0.898 |  | 7.3 |  |  |  |
| B4 |  |  |  |  |  |  |  |  |  |  | 2.46 | 0.369 |  |
| B5 |  |  |  |  |  |  |  |  |  |  |  |  | binds |
